Source: patent US8003357B2, “Acidophilic enzymes” (Helmholtz-Zentrum Fuer Infektionsforschung GmbH, priority 2005, dated 2011)

Tests used:
[1] = Transglucosylation of maltose catalyzed by αGluFA; assay type: biochemical
Excerpt: αGluFA is also suitable for the transfer of glucosyl groups from maltose to selectively produce a maltotriose. […] The reaction was followed by HPLC measurements.

[2] = pH and temperature dependence, stability and activity of recombinant acidic enzymes; assay type: biochemical; details: for enzymatic stability at elevated temperatures: FIG. 2, LigFA pH 3.0, EstFA and αGluFA pH 2.0 at 40 and 50° C., GlyFA1 and GlyFA2 pH 4.0 at 40° C.; for Optimum temperature: measured at optimum pH
Experimental: The acidic enzymes according to the invention were expressed in E. coli using the genomiccoding sequence for the respective enzyme from Ferroplasma acidiphilum, which are described in detail below. For enzymatic conversions, reaction conditions were in 100 mM sodium acetate buffer, 100 mM citrate buffer, 100 mM HEPES buffer for 2 minutes at 30° C., using p-nitrophenol propionate as the substrate for esterase, starch in the case of glycosidases, and HindIII digested λ DNA for ligase.
The activity was assayed using p-nitrophenol propionate as a substrate for esterase, starch for αGluFA and GlyFA1, GlyFA2, and HindIII digested λ DNA for LigFA.
The acidic enzymes according to the invention in vitro show similar elevated reaction temperatures. Substrates were as described for FIG. 2 above.
An overview of catalytic and molecular properties of acidic enzymes that were heterologously expressed in E. coli is given in the following Table III: […]

[3] = Fe2+ content (ICP-MS) and Fe2+ dependence of activity, dialysis against EDTA; assay type: biochemical; details: relative to wild type = 100; after dialysis against 1 mM EDTA; 100 mM sodium citrate, 10 mM FeCl2
Experimental: The UV-VIS absorption spectra of purified acidic enzymes are shown in FIG. 4, wherein the uninterrupted lines refer to Fe^2+ containing enzymes and the interrupted lines refer to enzymes after dialysis against EDTA containing buffer. The λ-max values found at ca. 572 nm correlate with the Fe^2+ content, i.e. disappear after incubation with EDTA or DTT for 24 h. ICP-MS analysis confirmed the presence of 0.82±0.10 mol Fe in EstFA, 0.34±0.08 mol Fe in αGluFA, […] and 0.63±0.09 mol Fe in LigFA.
In FIG. 5, relative activities of acidic enzymes with varying content of Fe^2+ are shown. For analysis, purified enzymes were incubated in 1 mM EDTA. At time intervals indicated, two aliquots were removed, one was used for hydrolysis of respective substrates, the other for ICP-MS analysis of Fe. For relative activities, activities before incubation with EDTA were used as 100% values.
When further investigating the dependence of the acidic enzymes according to the invention on Fe^2+, relative activity for EstFA, αGluFA and LigFA were investigated for their natural Fe^2+ content, e.g. wild-type, which was set to 100%, in comparison to the activity after dialysis against a 1 mM EDTA containing buffer.

[4] = substrate: CCCC(=O)OCC(COC(=O)CCC)OC(=O)CCC; experiment: EstFA hydrolysis of p-nitrophenol esters and triglycerides; assay type: biochemical, Ferroplasma acidiphilum; details: other: EstFA expressed in E. coli
Experimental: (§1) Hydrolysis of p-nitrophenol propionate was observed spectrophotometrically at 405 nm, optionally in and 96-well plates. The substrate specificity of acidic esterase EstFA obtainable from Ferroplasma acidiphilum was characterized using the heterologously expressed EstFA of Example 6 (expressed in E. coli), using p-nitrophenol esters and triglycerides as summarised in following Table IV:
(§2) The above substrate specificities were tested in 96-well plates, using 100 mM citrate buffer (pH 2.0) in the presence of 5 μg pure EstFA. For the substrate, the concentrations between 10 nM and 10 mM were chosen. Progress of the reaction was followed by spectrophotometry using p-nitrophenol propionate as an indicator. The reaction was stopped after 10 hours by adjusting the pH to 8.0 by adding sodium hydroxide from a 100 mM stock solution and phenol red (0.8 mM) as a pH indicator. Activities and selectivities were examined according to Mam Fai Lui et al. (2001). Ester hydrolysis of enantiomerically pure esters was measured colorimetrically in 5.0 mM EPPS buffer (N-(2-hydroxyethyl) piperazine-N′-(3′-propanesulfonic acid) at pH 8.0 and phenol red after termination of the reaction.

[5] = substrate: CCCCCCCC(=O)Oc1ccc([N+](=O)[O-])cc1; experiment: as above; assay type: biochemical, Ferroplasma acidiphilum; details: other: EstFA expressed in E. coli
Experimental: as §1, §2

[6] = substrate: CCC(=O)Oc1ccc([N+](=O)[O-])cc1; experiment: as above; assay type: biochemical, Ferroplasma acidiphilum; details: other: EstFA expressed in E. coli
Experimental: as §1, §2

[7] = substrate: CCCC(=O)Oc1ccc([N+](=O)[O-])cc1; experiment: as above; assay type: biochemical, Ferroplasma acidiphilum; details: other: EstFA expressed in E. coli
Experimental: as §1, §2

[8] = substrate: CC(=O)Oc1ccc([N+](=O)[O-])cc1; experiment: as above; assay type: biochemical, Ferroplasma acidiphilum; details: other: EstFA expressed in E. coli
Experimental: as §1, §2

[9] = substrate: CCCCCCCCCCCC(=O)Oc1ccc([N+](=O)[O-])cc1; experiment: as above; assay type: biochemical, Ferroplasma acidiphilum; details: other: EstFA expressed in E. coli
Experimental: as §1, §2

[10] = substrate: CCCCCCCCCC(=O)Oc1ccc([N+](=O)[O-])cc1; experiment: as above; assay type: biochemical, Ferroplasma acidiphilum; details: other: EstFA expressed in E. coli
Experimental: as §1, §2

[11] = measured at optimum temperature

B1: αGluFA: acidic glucosidase from Ferroplasma acidiphilum, 531 amino acids, Seq ID No. 11 (protein, listed as Ferroplasma acidiphilum)
chain: INSLYILNHKVIIAVAVSAILIAMVFAGANIPYPGYNPTDHLISGKHPISNVSEVPKNFTLSGNVSNSNNNLPLSGTITVSNSTMSRTFNTSSNGSYNITLPQGNYSISSSIPGFQNYSSTINLDSNKTQNISTPPATTIGNGINQVPGSTNVSTLVPYLNNSIMSGGLNTDNITGTFDKNITIDLGKKLNNTQFVVLMKLDGAVYSYNWVTNGSGMAKLFLKYSGNYTMSAYTLYYNSSVIHYNTANNDTARFNMTERITFISSVILQSAVPLHDNSSVANSTLTVKGGVFSVPSLSVNSNLTGTYYKYEVPVGFYNFAYSNAHYVSKNFGVDVTGNSTVNKTIDPYLISINIRNNTGNTFNYTLGSTFYSGNGIHMATSGITTLLVFHDGKIVYDNTILLTSANPYYQLNLTISNKNLTFNGIETDSTNLSIVYSGNVTSNFYIASLEFENFSTSATNGMIIISGAASGSYPLDSGLYTYNMSQSLPTSAGNLTIKLVYDNDSKVSTDGRMTVEVYGYNISTLGNYITE
modifications: CDS (1)..(1596) alpha glu FA, in Figure 11 designated sequence 5a
percentage of transglucosylated maltose ([1]; over the course of the reaction): more than 70% | product selectivity of synthesis ([1]; pH 3.0, up to 300 g/L maltotriose): selectively synthesizes maltotriose | maltose ([1]; reaction time 5): 456 g/L | maltotriose ([1]; reaction time 5): 88 g/L | percentage of maltose transglycosylated ([1]; reaction time 5): 70.3% | glucose ([1]; reaction time 5, 600 g/L maltose, pH 3.0, 50° C.): 59 g/L | glucose ([1]; reaction time 10): 76 g/L | maltose ([1]; reaction time 10): 402 g/L | maltotriose ([1]; reaction time 10): 122 g/L | percentage of maltose transglycosylated ([1]; reaction time 10): 72.7% | glucose ([1]; reaction time 20): 112 g/L | maltose ([1]; reaction time 20): 302 g/L | maltotriose ([1]; reaction time 20): 186 g/L | percentage of maltose transglycosylated ([1]; reaction time 20): 74.5% | glucose ([1]; reaction time 30): 153 g/L | maltose ([1]; reaction time 30): 199 g/L | maltotriose ([1]; reaction time 30): 248 g/L | percentage of maltose transglycosylated ([1]; reaction time 30): 73.3% | glucose ([1]; reaction time 60): 165 g/L | maltose ([1]; reaction time 60): 159 g/L | maltotriose ([1]; reaction time 60): 276 g/L | percentage of maltose transglycosylated ([1]; reaction time 60): 74.7% | glucose ([1]; reaction time 180): 185 g/L | maltose ([1]; reaction time 180): 111 g/L | maltotriose ([1]; reaction time 180): 304 g/L | percentage of maltose transglycosylated ([1]; reaction time 180): 74.0% | enzymatic stability at elevated temperatures [2]: good stability | enzymatic activity retained ([2]; at 65° C.): approximately 50% | temperature up to which the enzyme was stable ([2]; for 60 minutes): up to 60 °C | Optimum pH ([2]; in the presence of Fe2+): 2.0 | Optimum temperature [2]: 60 °C | Optimum pH [2, 11]: 2.5-3.0 | original activity retained ([2]; pH 1.5 to 3.9, incubation at 20° C. over 24 hours): more than 80% | activity, +EDTA [3]: 5.40%

B2: EstFA: acidophilic, Fe2+ dependent esterase from Ferroplasma acidiphilum, 308 amino acids, Seq ID No. 6 (protein, listed as Ferroplasma acidiphilum)
chain: B1 chain
modifications: PEPTIDE (1)..(531) alpha Glu FA
stability of purified enzyme ([2]; 20 mM citrate buffer, pH 1.5, room temperature): stable | enzymatic stability at elevated temperatures [2]: good stability | Optimum temperature [2]: 50 °C | Optimum pH [2, 11]: 2.0-3.5 | stability at pH values above 5.0 ([2]; pH above 5.0): rapidly inactivated | activity, +EDTA [3]: 0.30%

B3: EstFA (Ferroplasma acidiphilum) (protein)
chain: MHLMNMVDPDFNSLIELSKSAGDMTKIEPAMLRNFLDESSLSSRGAPVEIKEIKDYKIKLDGRTLNARMYDDNNAKSAILYYHGGGFLFGNIETYDNYCRFLAKESGVKIISIEYRLAPEHKFPDAFNDAYDSFHYIAKKKKDFGIEGRIGVAGDSAGANLAAALCLKCRDGKTEMPAVQVLFYPSLAPDNFSRSFIEYSDNYVLTGKMIRYFGNMYSKNMQDLINPYFSPLVADDFSNLPPAIMVTNEYDPLRDPEETYVKKLREAGVRAVGIRGIGMIHGSATDFEVSDGARNIVKMVARIIPDYL
Km [4]: 1.75 ± 0.14 mg/mL | kcat [4]: 1890 ± 27 s⁻¹ | Km [5]: 1.68 ± 0.12 mg/mL | kcat [5]: 239 ± 12 s⁻¹ | Km [6]: 0.20 ± 0.04 mg/mL | kcat [6]: 1190 ± 25 s⁻¹ | Km [7]: 1.75 ± 0.12 mg/mL | kcat [7]: 2300 ± 30 s⁻¹ | Km [8]: 0.39 ± 0.08 mg/mL | kcat [8]: 860 ± 21 s⁻¹ | Km [9]: 4.41 ± 0.38 mg/mL | kcat [9]: 120 ± 4 s⁻¹ | Km [10]: 4.30 ± 0.42 mg/mL | kcat [10]: 179 ± 4 s⁻¹
